# Experimental data reported in paper PMC10221034 (2023).
# Biological target: wild-type rTpiA (recombinant Streptococcus pneumoniae D39 triosephosphate isomerase) (Streptococcus pneumoniae D39) (UniProt Q04JH4)
# Test: SPR; Biacore X100; rTpiA immobilised on CM5 chip by amine coupling; plasminogen 6.25-100 nM injected, contact time 120 s, 20 µL/min; running buffer 100 mM HEPES pH 7.4, 150 mM NaCl, 3 mM EDTA, 0.005% surfactant P20; apparent constants
# wild-type rTpiA (recombinant Streptococcus pneumoniae D39 triosephosphate isomerase) (Streptococcus pneumoniae D39), sequence (Q04JH4 2-252): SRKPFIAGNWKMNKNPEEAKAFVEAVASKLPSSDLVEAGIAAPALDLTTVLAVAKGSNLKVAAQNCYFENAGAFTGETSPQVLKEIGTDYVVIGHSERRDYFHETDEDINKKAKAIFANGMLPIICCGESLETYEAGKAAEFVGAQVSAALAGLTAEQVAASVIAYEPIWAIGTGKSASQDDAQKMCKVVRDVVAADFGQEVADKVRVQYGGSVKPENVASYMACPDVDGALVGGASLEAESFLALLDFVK
substance,measurement,value
human plasma plasminogen (natural protein),Kd,865 nM
same,koff,0.00375 s⁻¹
same,kon,4340 M⁻¹ s⁻¹
